Laboratory results published in the supplement of paper PMC5998384.

What was measured:
HeLa Kyoto [1] = assay: melting temperature (median over replicates), in situ; higher = more thermally stable
HeLa Kyoto [2] = assay: solubility change mitosis vs G1/S (difference of NP-40 vs SDS log2 ratios) (log2 ratio difference); higher = more soluble in mitosis
HeLa Kyoto [3] = assay: thermal stability score vs G1/S (z-score of summed log2 fold changes over temperatures); higher = more thermally stable than in G1/S
HeLa Kyoto [4] = assay: solubility in G1/S (NP-40 vs SDS abundance) (log2 ratio); higher = more soluble; details: cell cycle stage: G1/S
[5] = cell cycle stage: early G1 (4.5 h after nocodazole release)
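Wherever melting temperature (median over replicates), in situ is given: HeLa Kyoto cells synchronized by double thymidine or nocodazole block, proteins quantified by TMT10plex mass spectrometry, three independent biological replicates.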
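Wherever solubility change mitosis vs G1/S (difference of NP-40 vs SDS log2 ratios) is given: synchronized HeLa Kyoto cells (double thymidine block for G1/S, nocodazole release for mitosis), protein amounts in NP-40 versus SDS lysates quantified by mass spectrometry, three biological replicates.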
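Wherever solubility in G1/S (NP-40 vs SDS abundance) is given: HeLa Kyoto cells arrested at G1/S by double thymidine block, proteins quantified by TMT10plex mass spectrometry in mild NP-40 versus SDS extracts, three biological replicates.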
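Wherever thermal stability score vs G1/S (z-score of summed log2 fold changes over temperatures) is given: synchronized HeLa Kyoto cells, proteins quantified by TMT10plex mass spectrometry, three biological replicates, mitosis taken 0.5 h after nocodazole release, G1/S directly after double thymidine block.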

Substance	melting temperature (HeLa Kyoto [1]; cell cycle stage: G1/S) [°C]	melting temperature (HeLa Kyoto [1]; cell cycle stage: mitosis) [°C]	solubility change mitosis (log2) (HeLa Kyoto [2])	thermal stability score (HeLa Kyoto [3]; [5])	thermal stability score (HeLa Kyoto [3]; cell cycle stage: mitosis)	solubility in G1/S (log2) (HeLa Kyoto [4])
MAAEQDPEARAAARPLLTDLYQATMALGYWRAGRARDAAEFELFFRRCPFGGAFALAAGLRDCVRFLRAFRLRDADVQFLASVLPPDTDPAFFEHLRALDCSEVTVRALPEGSLAFPGVPLLQVSGPLLVVQLLETPLLCLVSYASLVATNAARLRLIAGPEKRLLEMGLRRAQGPDGGLTASTYSYLGGFDSSSNVLAGQLRGVPVAGTLAHSFVTSFSGSEVPPDPMLAPAAGEGPGVDLAAKAQVWLEQVCAHLGLGVQEPHPGERAAFVAYALAFPRAFQGLLDTYSVWRSGLPNFLAVALALGELGYRAVGVRLDSGDLLQQAQEIRKVFRAAAAQFQVPWLESVLIVVSNNIDEEALARLAQEGSEVNVIGIGTSVVTCPQQPSLGGVYKLVAVGGQPRMKLTEDPEKQTLPGSKAAFRLLGSDGSPLMDMLQLAEEPVPQAGQELRVWPPGAQEPCTVRPAQVEPLLRLCLQQGQLCEPLPSLAESRALAQLSLSRLSPEHRRLRSPAQYQVVLSERLQALVNSLCAGQSP [NAPRT]	56.9	56.7	-0.0823	0.14	-1.8	0.352
MRSRSNSGVRLDGYARLVQQTILCYQNPVTGLLSASHEQKDAWVRDNIYSILAVWGLGMAYRKNADRDEDKAKAYELEQNVVKLMRGLLQCMMRQVAKVEKFKHTQSTKDSLHAKYNTATCGTVVGDDQWGHLQVDATSLFLLFLAQMTASGLRIIFTLDEVAFIQNLVFYIEAAYKVADYGMWERGDKTNQGIPELNASSVGMAKAALEAIDELDLFGAHGGRKSVIHVLPDEVEHCQSILFSMLPRASTSKEIDAGLLSIISFPAFAVEDVNLVNVTKNEIISKLQGRYGCCRFLRDGYKTPREDPNRLHYDPAELKLFENIECEWPVFWTYFIIDGVFSGDAVQVQEYREALEGILIRGKNGIRLVPELYAVPPNKVDEEYKNPHTVDRVPMGKVPHLWGQSLYILSSLLAEGFLAAGEIDPLNRRFSTSVKPDVVVQVTVLAENNHIKDLLRKHGVNVQSIADIHPIQVQPGRILSHIYAKLGRNKNMNLSGRPYRHIGVLGTSKLYVIRNQIFTFTPQFTDQHHFYLALDNEMIVEMLRIELAYLCTCWRMTGRPTLTFPISRTMLTNDGSDIHSAVLSTIRKLEDGYFGGARVKLGNLSEFLTTSFYTYLTFLDPDCDEKLFDNASEGTFSPDSDSDLVGYLEDTCNQESQDELDHYINHLLQSTSLRSYLPPLCKNTEDRHVFSAIHSTRDILSVMAKAKGLEVPFVPMTLPTKVLSAHRKSLNLVDSPQPLLEKVPESDFQWPRDDHGDVDCEKLVEQLKDCSNLQDQADILYILYVIKGPSWDTNLSGQHGVTVQNLLGELYGKAGLNQEWGLIRYISGLLRKKVEVLAEACTDLLSHQKQLTVGLPPEPREKIISAPLPPEELTKLIYEASGQDISIAVLTQEIVVYLAMYVRAQPSLFVEMLRLRIGLIIQVMATELARSLNCSGEEASESLMNLSPFDMKNLLHHILSGKEFGVERSVRPIHSSTSSPTISIHEVGHTGVTKTERSGINRLRSEMKQMTRRFSADEQFFSVGQAASSSAHSSKSARSSTPSSPTGTSSSDSGGHHIGWGERQGQWLRRRRLDGAINRVPVGFYQRVWKILQKCHGLSIDGYVLPSSTTREMTPHEIKFAVHVESVLNRVPQPEYRQLLVEAIMVLTLLSDTEMTSIGGIIHVDQIVQMASQLFLQDQVSIGAMDTLEKDQATGICHFFYDSAPSGAYGTMTYLTRAVASYLQELLPNSGCQMQ [PHKA2]	52.6	51.7	-0.229	0.315	-0.217	0.00161
MPSAKQRGSKGGHGAASPSEKGAHPSGGADDVAKKPPPAPQQPPPPPAPHPQQHPQQHPQNQAHGKGGHRGGGGGGGKSSSSSSASAAAAAAAASSSASCSRRLGRALNFLFYLALVAAAAFSGWCVHHVLEEVQQVRRSHQDFSRQREELGQGLQGVEQKVQSLQATFGTFESILRSSQHKQDLTEKAVKQGESEVSRISEVLQKLQNEILKDLSDGIHVVKDARERDFTSLENTVEERLTELTKSINDNIAIFTEVQKRSQKEINDMKAKVASLEESEGNKQDLKALKEAVKEIQTSAKSREWDMEALRSTLQTMESDIYTEVRELVSLKQEQQAFKEAADTERLALQALTEKLLRSEESVSRLPEEIRRLEEELRQLKSDSHGPKEDGGFRHSEAFEALQQKSQGLDSRLQHVEDGVLSMQVASARQTESLESLLSKSQEHEQRLAALQGRLEGLGSSEADQDGLASTVRSLGETQLVLYGDVEELKRSVGELPSTVESLQKVQEQVHTLLSQDQAQAARLPPQDFLDRLSSLDNLKASVSQVEADLKMLRTAVDSLVAYSVKIETNENNLESAKGLLDDLRNDLDRLFVKVEKIHEKV [CKAP4]	52	52.4	0.148	5.49	6.55	0.635
MLGVRCLLRSVRFCSSAPFPKHKPSAKLSVRDALGAQNASGERIKIQGWIRSVRSQKEVLFLHVNDGSSLESLQVVADSGLDSRELNFGSSVEVQGQLIKSPSKRQNVELKAEKIKVIGNCDAKDFPIKYKERHPLEYLRQYPHFRCRTNVLGSILRIRSEATAAIHSFFKDSGFVHIHTPIITSNDSEGAGELFQLEPSGKLKVPEENFFNVPAFLTVSGQLHLEVMSGAFTQVFTFGPTFRAENSQSRRHLAEFYMIEAEISFVDSLQDLMQVIEELFKATTMMVLSKCPEDVELCHKFIAPGQKDRLEHMLKNNFLIISYTEAVEILKQASQNFTFTPEWGADLRTEHEKYLVKHCGNIPVFVINYPLTLKPFYMRDNEDGPQHTVAAVDLLVPGVGELFGGGLREERYHFLEERLARSGLTEVYQWYLDLRRFGSVPHGGFGMGFERYLQCILGVDNIKDVIPFPRFPHSCLL [NARS2]	49.7	49.8	-0.147	-0.169	1.1	-0.141
MSMEDYDFLFKIVLIGNAGVGKTCLVRRFTQGLFPPGQGATIGVDFMIKTVEINGEKVKLQIWDTAGQERFRSITQSYYRSANALILTYDITCEESFRCLPEWLREIEQYASNKVITVLVGNKIDLAERREVSQQRAEEFSEAQDMYYLETSAKESDNVEKLFLDLACRLISEARQNTLVNNVSSPLPGEGKSISYLTCCNFN [RAB30]	51.3	51.7	-0.0812	0.727	1.4	-0.379
MDGGDDGNLIIKKRFVSEAELDERRKRRQEEWEKVRKPEDPEECPEEVYDPRSLYERLQEQKDRKQQEYEEQFKFKNMVRGLDEDETNFLDEVSRQQELIEKQRREEELKELKEYRNNLKKVGISQENKKEVEKKLTVKPIETKNKFSQAKLLAGAVKHKSSESGNSVKRLKPDPEPDDKNQEPSSCKSLGNTSLSGPSIHCPSAAVCIGILPGLGAYSGSSDSESSSDSEGTINATGKIVSSIFRTNTFLEAP [FAM192A]	57.6		-0.000768	-1.68	-2.27	0.194
MDLSGVKKKSLLGVKENNKKSSTRAPSPTKRKDRSDEKSKDRSKDKGATKESSEKDRGRDKTRKRRSASSGSSSTRSRSSSTSSSGSSTSTGSSSGSSSSSASSRSGSSSTSRSSSSSSSSGSPSPSRRRHDNRRRSRSKSKPPKRDEKERKRRSPSPKPTKVHIGRLTRNVTKDHIMEIFSTYGKIKMIDMPVERMHPHLSKGYAYVEFENPDEAEKALKHMDGGQIDGQEITATAVLAPWPRPPPRRFSPPRRMLPPPPMWRRSPPRMRRRSRSPRRRSPVRRRSRSPGRRRHRSRSSSNSSR [RNPS1]	48.9	50	0.52	0.608	1.88	-0.501
MVSKALLRLVSAVNRRRMKLLLGIALLAYVASVWGNFVNMRSIQENGELKIESKIEEMVEPLREKIRDLEKSFTQKYPPVKFLSEKDRKRILITGGAGFVGSHLTDKLMMDGHEVTVVDNFFTGRKRNVEHWIGHENFELINHDVVEPLYIEVDQIYHLASPASPPNYMYNPIKTLKTNTIGTLNMLGLAKRVGARLLLASTSEVYGDPEVHPQSEDYWGHVNPIGPRACYDEGKRVAETMCYAYMKQEGVEVRVARIFNTFGPRMHMNDGRVVSNFILQALQGEPLTVYGSGSQTRAFQYVSDLVNGLVALMNSNVSSPVNLGNPEEHTILEFAQLIKNLVGSGSEIQFLSEAQDDPQKRKPDIKKAKLMLGWEPVVPLEEGLNKAIHYFRKELEYQANNQYIPKPKPARIKKGRTRHS [UXS1]	54.6	54.7	-0.193	0.535	-0.237	0.264
PKM	57.8	57.4	-0.106	-2.6	-2.54	0.116
MAAQRRSLLQSEQQPSWTDDLPLCHLSGVGSASNRSYSADGKGTESHPPEDSWLKFRSENNCFLYGVFNGYDGNRVTNFVAQRLSAELLLGQLNAEHAEADVRRVLLQAFDVVERSFLESIDDALAEKASLQSQLPEGVPQHQLPPQYQKILERLKTLEREISGGAMAVVAVLLNNKLYVANVGTNRALLCKSTVDGLQVTQLNVDHTTENEDELFRLSQLGLDAGKIKQVGIICGQESTRRIGDYKVKYGYTDIDLLSAAKSKPIIAEPEIHGAQPLDGVTGFLVLMSEGLYKALEAAHGPGQANQEIAAMIDTEFAKQTSLDAVAQAVVDRVKRIHSDTFASGGERARFCPRHEDMTLLVRNFGYPLGEMSQPTPSPAPAAGGRVYPVSVPYSSAQSTSKTSVTLSLVMPSQGQMVNGAHSASTLDEATPTLTNQSPTLTLQSTNTHTQSSSSSSDGGLFRSRPAHSLPPGEDGRVEPYVDFAEFYRLWSVDHGEQSVVTAP [TAB1]	49.4	49.7	-0.0812	-0.0541	1.34	0.302
MAKQKRKVPEVTEKKNKKLKKASAEGPLLGPEAAPSGEGAGSKGEAVLRPGLDAEPELSPEEQRVLERKLKKERKKEERQRLREAGLVAQHPPARRSGAELALDYLCRWAQKHKNWRFQKTRQTWLLLHMYDSDKVPDEHFSTLLAYLEGLQGRARELTVQKAEALMRELDEEGSDPPLPGRAQRIRQVLQLLS [C7ORF50]	50	53.5	0.57	0.0776	0.494	-0.289
MSATVVDAVNAAPLSGSKEMSLEEPKKMTREDWRKKKELEEQRKLGNAPAEVDEEGKDINPHIPQYISSVPWYIDPSKRPTLKHQRPQPEKQKQFSSSGEWYKRGVKENSIITKYRKGACENCGAMTHKKKDCFERPRRVGAKFTGTNIAPDEHVQPQLMFDYDGKRDRWNGYNPEEHMKIVEEYAKVDLAKRTLKAQKLQEELASGKLVEQANSPKHQWGEEEPNSQMEKDHNSEDEDEDKYADDIDMPGQNFDSKRRITVRNLRIREDIAKYLRNLDPNSAYYDPKTRAMRENPYANAGKNPDEVSYAGDNFVRYTGDTISMAQTQLFAWEAYDKGSEVHLQADPTKLELLYKSFKVKKEDFKEQQKESILEKYGGQEHLDAPPAELLLAQTEDYVEYSRHGTVIKGQERAVACSKYEEDVKIHNHTHIWGSYWKEGRWGYKCCHSFFKYSYCTGEAGKEIVNSEECIINEITGEESVKKPQTLMELHQEKLKEEKKKKKKKKKKHRKSSSDSDDEEKKHEKLKKALNAEEARLLHVKETMQIDERKRPYNSMYETREPTEEEMEAYRMKRQRPDDPMASFLGQ [SLU7]	46.9	49.9	0.256	0.191	0.493	-0.523
MFEEPEWAEAAPVAAGLGPVISRPPPAASSQNKGSKRRQLLATLRALEAASLSQHPPSLCISDSEEEEEERKKKCPKKASFASASAEVGKKGKKKCQKQGPPCSDSEEEVERKKKCHKQALVGSDSAEDEKRKRKCQKHAPINSAQHLDNVDQTGPKAWKGSTTNDPPKQSPGSTSPKPPHTLSRKQWRNRQKNKRRCKNKFQPPQVPDQAPAEAPTEKTEVSPVPRTDSHEARAGALRARMAQRLDGARFRYLNEQLYSGPSSAAQRLFQEDPEAFLLYHRGFQSQVKKWPLQPVDRIARDLRQRPASLVVADFGCGDCRLASSIRNPVHCFDLASLDPRVTVCDMAQVPLEDESVDVAVFCLSLMGTNIRDFLEEANRVLKPGGLLKVAEVSSRFEDVRTFLRAVTKLGFKIVSKDLTNSHFFLFDFQKTGPPLVGPKAQLSGLQLQPCLYKRR [RRP8]	49.1	51.7	0.852	1.48	2.48	-1.46
